Earlier results, collected in publication PMC11743636.

Key:
sgp130 (Homo sapiens) = sgp130 (Homo sapiens) (UniProt P40189)
sIL-6R (Homo sapiens) = sIL-6R (Homo sapiens) (UniProt P08887)
Sequence of sIL-6R (Homo sapiens) (P08887 20-355): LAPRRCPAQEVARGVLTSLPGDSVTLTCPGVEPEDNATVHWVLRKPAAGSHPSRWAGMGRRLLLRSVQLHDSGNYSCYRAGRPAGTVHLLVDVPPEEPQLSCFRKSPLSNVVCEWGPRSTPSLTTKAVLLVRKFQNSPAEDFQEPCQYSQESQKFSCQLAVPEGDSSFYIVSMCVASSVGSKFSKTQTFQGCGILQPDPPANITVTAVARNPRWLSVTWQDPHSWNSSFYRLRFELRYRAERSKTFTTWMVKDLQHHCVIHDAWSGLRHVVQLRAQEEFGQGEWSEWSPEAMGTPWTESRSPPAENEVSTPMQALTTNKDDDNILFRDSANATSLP

Sequence of sgp130 (Homo sapiens) (P40189 23-619): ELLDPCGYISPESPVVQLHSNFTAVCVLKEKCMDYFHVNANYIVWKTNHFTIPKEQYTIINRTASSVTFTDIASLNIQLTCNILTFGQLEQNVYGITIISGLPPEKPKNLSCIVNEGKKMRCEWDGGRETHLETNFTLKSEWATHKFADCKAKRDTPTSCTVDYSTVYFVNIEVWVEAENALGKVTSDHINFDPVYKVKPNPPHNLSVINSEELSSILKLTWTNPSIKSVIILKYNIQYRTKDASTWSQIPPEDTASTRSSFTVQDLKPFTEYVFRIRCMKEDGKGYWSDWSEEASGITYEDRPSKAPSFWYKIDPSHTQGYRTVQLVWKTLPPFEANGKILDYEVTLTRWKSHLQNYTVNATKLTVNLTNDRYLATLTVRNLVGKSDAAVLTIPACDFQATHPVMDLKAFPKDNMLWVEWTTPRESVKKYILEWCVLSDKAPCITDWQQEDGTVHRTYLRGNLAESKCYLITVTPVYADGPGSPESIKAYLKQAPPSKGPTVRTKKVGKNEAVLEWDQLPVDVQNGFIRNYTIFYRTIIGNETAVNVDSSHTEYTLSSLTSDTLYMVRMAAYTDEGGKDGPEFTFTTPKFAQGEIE

Kd (sgp130 (Homo sapiens)) [nM] | Kd (sIL-6R (Homo sapiens)) [nM] | Substance
0.05 | – | IL-6/sIL-6R complex (from UniProt P05231)
– | 0.5 | IL-6 (from UniProt P05231)
